Laboratory results taken from the supplement of paper PMC10567573.

B1: GLTSCR2 (parent)
chain: YNPSFEDHQTLLSAAHEVELQRQK
B2: ZNF193 (parent)
chain: QKRYHCKECGKVFSQSAGLIQHQR

Variants of: B1
Experiment: protein stability index of a GFP-peptide fusion (GPS, HEK-293T) (PSI 1-6); higher = more stable
Conditions: c terminus: a fixed tail appended
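Note: lentivirally expressed fusions sorted by FACS into six bins by GFP to DsRed ratio, PSI derived from sequencing read proportions per bin multiplied by bin number.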

Variant	protein stability index
YNPSFEDHQTLLSAAHEVELKRQK [Q21K]	3.17
YNPSFEDHQTLLSAAHEVELLRQK [Q21L]	2.96
YNPSFEDHQTLLSAAHEVELMRQK [Q21M]	3.06
YNPSFEDHQTLLSAAHEVELNRQK [Q21N]	3.71
YNPSFEDHQTLLSAAHEVELPRQK [Q21P]	4.07
YNPSFEDHQTLLSAAHEVELRRQK [Q21R]	3.95
YNPSFEDHQTLLSAAHEVELSRQK [Q21S]	3.96
YNPSFEDHQTLLSAAHEVELTRQK [Q21T]	3.44
YNPSFEDHQTLLSAAHEVELVRQK [Q21V]	3.28
YNPSFEDHQTLLSAAHEVELWRQK [Q21W]	3.06
YNPSFEDHQTLLSAAHEVELYRQK [Q21Y]	3.18
YNPSFEDHQTLLSAAHEVELQAQK [R22A]	4.18
YNPSFEDHQTLLSAAHEVELQCQK [R22C]	3.35
YNPSFEDHQTLLSAAHEVELQDQK [R22D]	4.84
YNPSFEDHQTLLSAAHEVELQEQK [R22E]	4.69
YNPSFEDHQTLLSAAHEVELQFQK [R22F]	3.43
YNPSFEDHQTLLSAAHEVELQGQK [R22G]	3.86
YNPSFEDHQTLLSAAHEVELQHQK [R22H]	3.99
YNPSFEDHQTLLSAAHEVELQIQK [R22I]	2.91
YNPSFEDHQTLLSAAHEVELQKQK [R22K]	4.13
YNPSFEDHQTLLSAAHEVELQLQK [R22L]	3.18
YNPSFEDHQTLLSAAHEVELQMQK [R22M]	3.4
YNPSFEDHQTLLSAAHEVELQNQK [R22N]	4.32

Variant	protein stability index
YNPSFEDHQTLLSAAHEVELQPQK [R22P]	4.21
YNPSFEDHQTLLSAAHEVELQQQK [R22Q]	4.24
YNPSFEDHQTLLSAAHEVELQSQK [R22S]	3.9
YNPSFEDHQTLLSAAHEVELQTQK [R22T]	3.96
YNPSFEDHQTLLSAAHEVELQVQK [R22V]	3.7
YNPSFEDHQTLLSAAHEVELQWQK [R22W]	2.71
YNPSFEDHQTLLSAAHEVELQYQK [R22Y]	3.16
YNPSFEDHQTLLSAAHEVELQRAK [Q23A]	3.75
YNPSFEDHQTLLSAAHEVELQRCK [Q23C]	3.06
YNPSFEDHQTLLSAAHEVELQRDK [Q23D]	4.23
YNPSFEDHQTLLSAAHEVELQREK [Q23E]	4.13
YNPSFEDHQTLLSAAHEVELQRFK [Q23F]	2.56
YNPSFEDHQTLLSAAHEVELQRGK [Q23G]	4.12
YNPSFEDHQTLLSAAHEVELQRHK [Q23H]	3.33
YNPSFEDHQTLLSAAHEVELQRIK [Q23I]	3.23
YNPSFEDHQTLLSAAHEVELQRKK [Q23K]	3.75
YNPSFEDHQTLLSAAHEVELQRLK [Q23L]	3.21
YNPSFEDHQTLLSAAHEVELQRMK [Q23M]	3.4
YNPSFEDHQTLLSAAHEVELQRNK [Q23N]	3.45
YNPSFEDHQTLLSAAHEVELQRPK [Q23P]	3.96
YNPSFEDHQTLLSAAHEVELQRRK [Q23R]	3.5
YNPSFEDHQTLLSAAHEVELQRSK [Q23S]	3.63
YNPSFEDHQTLLSAAHEVELQRTK [Q23T]	3.68

Variant	protein stability index
YNPSFEDHQTLLSAAHEVELQRVK [Q23V]	3.57
YNPSFEDHQTLLSAAHEVELQRWK [Q23W]	2.95
YNPSFEDHQTLLSAAHEVELQRYK [Q23Y]	3.19
YNPSFEDHQTLLSAAHEVELQRQA [K24A]	3.39
YNPSFEDHQTLLSAAHEVELQRQC [K24C]	3.22
YNPSFEDHQTLLSAAHEVELQRQD [K24D]	4.28
YNPSFEDHQTLLSAAHEVELQRQE [K24E]	4.36
YNPSFEDHQTLLSAAHEVELQRQF [K24F]	2.66
YNPSFEDHQTLLSAAHEVELQRQG [K24G]	3.78
YNPSFEDHQTLLSAAHEVELQRQH [K24H]	3.23
YNPSFEDHQTLLSAAHEVELQRQI [K24I]	3.33
YNPSFEDHQTLLSAAHEVELQRQL [K24L]	3.48
YNPSFEDHQTLLSAAHEVELQRQM [K24M]	3.28
YNPSFEDHQTLLSAAHEVELQRQN [K24N]	3.96
YNPSFEDHQTLLSAAHEVELQRQP [K24P]	3.33
YNPSFEDHQTLLSAAHEVELQRQQ [K24Q]	3.81
YNPSFEDHQTLLSAAHEVELQRQR [K24R]	3.21
YNPSFEDHQTLLSAAHEVELQRQS [K24S]	3.97
YNPSFEDHQTLLSAAHEVELQRQT [K24T]	3.98
YNPSFEDHQTLLSAAHEVELQRQV [K24V]	3.31
YNPSFEDHQTLLSAAHEVELQRQW [K24W]	2.79
YNPSFEDHQTLLSAAHEVELQRQY [K24Y]	3.18

Variants of: B2
Experiment: as above
Conditions: c terminus: a fixed tail appended

Variant	protein stability index
AKRYHCKECGKVFSQSAGLIQHQR [Q1A]	2.67
CKRYHCKECGKVFSQSAGLIQHQR [Q1C]	2.42
DKRYHCKECGKVFSQSAGLIQHQR [Q1D]	3.71
EKRYHCKECGKVFSQSAGLIQHQR [Q1E]	3.7
FKRYHCKECGKVFSQSAGLIQHQR [Q1F]	2.45
GKRYHCKECGKVFSQSAGLIQHQR [Q1G]	2.81
HKRYHCKECGKVFSQSAGLIQHQR [Q1H]	2.73
IKRYHCKECGKVFSQSAGLIQHQR [Q1I]	3.03
KKRYHCKECGKVFSQSAGLIQHQR [Q1K]	3.1
LKRYHCKECGKVFSQSAGLIQHQR [Q1L]	2.62
MKRYHCKECGKVFSQSAGLIQHQR [Q1M]	2.45
NKRYHCKECGKVFSQSAGLIQHQR [Q1N]	2.32
PKRYHCKECGKVFSQSAGLIQHQR [Q1P]	3.16
RKRYHCKECGKVFSQSAGLIQHQR [Q1R]	3.19
SKRYHCKECGKVFSQSAGLIQHQR [Q1S]	2.88
TKRYHCKECGKVFSQSAGLIQHQR [Q1T]	2.98
VKRYHCKECGKVFSQSAGLIQHQR [Q1V]	3.05
WKRYHCKECGKVFSQSAGLIQHQR [Q1W]	1.9
YKRYHCKECGKVFSQSAGLIQHQR [Q1Y]	2.2
QARYHCKECGKVFSQSAGLIQHQR [K2A]	2.85
QCRYHCKECGKVFSQSAGLIQHQR [K2C]	2.39
QDRYHCKECGKVFSQSAGLIQHQR [K2D]	3.31
QERYHCKECGKVFSQSAGLIQHQR [K2E]	3.08
QFRYHCKECGKVFSQSAGLIQHQR [K2F]	2.31
QGRYHCKECGKVFSQSAGLIQHQR [K2G]	3.31
QHRYHCKECGKVFSQSAGLIQHQR [K2H]	3.06
